For two molecules, fold increase in signal above background and fold above background results are on record in EP2182008A2.

In experiment [1] the target is soluble human αd/CD18 leucine zipper heterodimer (human) (UniProt P05107). As to the kind of experiment: ELISA, CAM/Ig on αd/CD18LZ captured with 212D. In general terms: In an ELISA, binding on a coated surface is turned into a signal by an enzyme label.
In experiment [2] the target is LFA-1 leucine zipper fusion protein (UniProt P20701). As to the kind of experiment: ELISA, CAM/Ig on captured integrin.

B1: VCAM-1/IgG1 fusion protein (seven extracellular immunoglobulin-like domains) (Fc fusion, UniProt P19320 25-698, looked up, not shown: a dimerising Fc or GST)
chain: FKIETTPESRYLAQIGDSVSLTCSTTGCESPFFSWRTQIDSPLNGKVTNEGTTSTLTMNPVSFGNEHSYLCTATCESRKLEKGIQVEIYSFPKDPEIHLSGPLEAGKPITVKCSVADVYPFDRLEIDLLKGDHLMKSQEFLEDADRKSLETKSLEVTFTPVIEDIGKVLVCRAKLHIDEMDSVPTVRQAVKELQVYISPKNTVISVNPSTKLQEGGSVTMTCSSEGLPAPEIFWSKKLDNGNLQHLSGNATLTLIAMRMEDSGIYVCEGVNLIGKNRKEVELIVQEKPFTVEISPGPRIAAQIGDSVMLTCSVMGCESPSFSWRTQIDSPLSGKVRSEGTNSTLTLSPVSFENEHSYLCTVTCGHKKLEKGIQVELYSFPRDPEIEMSGGLVNGSSVTVSCKVPSVYPLDRLEIELLKGETILENIEFLEDTDMKSLENKSLEMTFIPTIEDTGKALVCQAKLHIDDMEFEPKQRQSTQTLYVNVAPRDTTVLVSPSSILEEGSSVNMTCLSQGFPAPKILWSRQLPNGELQPLSENATLTLISTKMEDSGVYLCEGINQAGRSRKEVELIIQVTPKDIKLTAFPSESVKEGDTVIISCTCGNVPETWIILKKKAETGDTVLKSIDGAYTIRKAQLKDAGVYECESKNKVGSQLRSLTLDVQGRENNKDYFSPE
B1 returned a fold increase in signal above background in experiment [1] of 5 fold.

B2: ICAM-2/Ig (Fc fusion, part only; not given: Ig Fc portion, UniProt P13598 25-223, looked up, part only)
chain, part: KVFEVHVRPKKLAVEPKGSLEVNCSTTCNQPEVGGLETSLDKILLDEQAQWKHYLVSNISHDTVLQCHFTCSGKQESMNSNVSVYQPPRQVILTLQPTLVAVGKSFTIECRVPTVEPLDSLTLFLFRGNETLHYETFGKAAPAPQEATATFNSTADREDGHRNFSCLAVLDLMSRGGNIFHKHSAPKMLEIYEPVSDSQ
For B2, in experiment [2], the fold above background was 10 fold.
